± gives the standard error. For some assays here: Variants at the floor of the assay were thinned out.
B1: glmS ribozyme (parent)
chain: AUAAAAGCGCCAGAACUACAGAAAUGUAGUUGACGAGGAGGAGGUUUAUCGAAUUUUCGGCGGAUGCCUCCAAA

What was measured:
Conditions in all cases: with glucosamine-6-phosphate
glucosamine-6-phosphate [1] = variants of: B1; test: kcat; higher = faster cleavage; RNA array
How it was run: (§1)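 Glucosamine-6-phosphate in HEPES/KCl/Mg(OAc)2 buffer, at 40 μM to 10 mM, was flowed over barcoded ribozyme variants transcribed in situ by E. coli RNA polymerase on sequenced MiSeq chips. Tracking was through a hybridised Cy3 probe at 37 °C. kobs, kcat and KM came from exponential decay fits and weighted Michaelis–Menten fits of normalised per-tile medians.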

glucosamine-6-phosphate [2] = variants of: B1; test: self-cleavage kobs at 40 uM GlcN6P; higher = faster cleavage; RNA array
How it was run: as §1

glucosamine-6-phosphate [3] = variants of: B1; test: self-cleavage kobs at 160 uM GlcN6P; higher = faster cleavage; RNA array
How it was run: as §1

glucosamine-6-phosphate [4] = variants of: B1; test: self-cleavage kobs at 640 uM GlcN6P; higher = faster cleavage; RNA array
How it was run: as §1

glucosamine-6-phosphate [5] = variants of: B1; test: self-cleavage kobs at 2500 uM GlcN6P; higher = faster cleavage; RNA array
How it was run: as §1

glucosamine-6-phosphate [6] = variants of: B1; test: self-cleavage kobs at 10000 uM GlcN6P; higher = faster cleavage; RNA array
How it was run: as §1

glucosamine-6-phosphate [7] = variants of: B1; test: KM; higher = weaker cofactor use; RNA array
How it was run: as §1

Row | Variant | kcat (glucosamine-6-phosphate [1]) [s⁻¹] | self-cleavage kobs at 40 uM GlcN6P (glucosamine-6-phosphate [2]) [s⁻¹] | self-cleavage kobs at 160 uM GlcN6P (glucosamine-6-phosphate [3]) [s⁻¹] | self-cleavage kobs at 640 uM GlcN6P (glucosamine-6-phosphate [4]) [s⁻¹] | self-cleavage kobs at 2500 uM GlcN6P (glucosamine-6-phosphate [5]) [s⁻¹] | self-cleavage kobs at 10000 uM GlcN6P (glucosamine-6-phosphate [6]) [s⁻¹] | KM (glucosamine-6-phosphate [7]) [µM]
1 | U56G G66A | 0.0089 ± 0.0034 | 0.00021 ± 3.4e-05 | 0.00049 ± 0.00011 | 0.00136 ± 0.00037 | 0.00405 ± 0.00078 | 0.00875 ± 0.0018 | 
2 | U56G G66U | 0.000858 ± 0.00012 | 3.12e-05 ± 8.7e-06 | 6.25e-05 ± 7.4e-06 | 0.000237 ± 2.4e-05 | 0.000576 ± 5.7e-05 | 0.000682 ± 6.4e-05 | 1780 ± 400
3 | U56G G66C | 0.000388 ± 2.1e-05 |  |  | 9.51e-05 ± 3.1e-05 | 0.000244 ± 4.9e-05 | 0.000325 ± 3.9e-05 | 1800 ± 300
4 | U57G C61G | 1.3e-05 ± 4.8e-06 |  |  |  |  |  | 
5 | U56G U65G | 0.00371 ± 0.00083 | 3.29e-05 ± 1.6e-05 |  | 0.000301 ± 6e-05 | 0.000811 ± 0.00023 | 0.00218 ± 0.00031 | 7360 ± 2500
6 | U57A C61G | 1.36e-05 ± 5.5e-06 |  |  |  |  |  | 
7 | C58G C61A | 1.85e-05 ± 4e-06 |  |  |  |  |  | 
8 | U56G C70U | 0.00109 ± 0.00036 | 0.000308 ± 4.6e-05 | 0.000437 ± 7.8e-05 | 0.000908 ± 0.00022 | 0.000943 ± 0.0003 | 0.00182 ± 0.00036 | 
9 | U54A | 0.0591 ± 0.015 | 0.00106 ± 2e-05 | 0.00285 ± 0.00013 | 0.0124 ± 0.00049 | 0.03 ± 0.0018 | 0.0497 ± 0.0024 | 2360 ± 680
10 | U54C | 0.0582 ± 0.0055 | 0.00101 ± 1.9e-05 | 0.00345 ± 0.00027 | 0.0121 ± 0.0007 | 0.0274 ± 0.0017 | 0.051 ± 0.0026 | 2290 ± 240
11 | U54G | 0.0504 ± 0.0099 | 0.00117 ± 3.8e-05 | 0.00365 ± 0.00023 | 0.0116 ± 0.00052 | 0.0251 ± 0.0014 | 0.0511 ± 0.0026 | 1870 ± 470
12 | G59U C68U | 1.5e-05 ± 6.2e-06 | < 1e-05 |  |  | 2.67e-05 ± 1.3e-05 |  | 
13 | G59A G63U | < 1e-05 | < 1e-05 |  |  | < 1e-05 |  | 294 ± 68
14 | U55G A64C | 0.000152 ± 1.4e-05 |  |  | 5.93e-05 ± 1.7e-05 | 9.39e-05 ± 1.5e-05 | 0.000143 ± 2e-05 | 1210 ± 350
15 | U56G C61A | < 1e-05 |  |  |  |  |  | 
16 | U54G C61U | 2.79e-05 ± 5.8e-06 |  |  |  | 3.11e-05 ± 1.3e-05 | 2.39e-05 ± 1e-05 | 
17 | U54G C61G | 1.78e-05 ± 5.8e-06 | < 1e-05 |  |  |  |  | 
18 | U54C C61U | 2.59e-05 ± 2.6e-06 |  |  |  |  |  | 

Row | Variant | kcat (glucosamine-6-phosphate [1]) [s⁻¹] | self-cleavage kobs at 40 uM GlcN6P (glucosamine-6-phosphate [2]) [s⁻¹] | self-cleavage kobs at 160 uM GlcN6P (glucosamine-6-phosphate [3]) [s⁻¹] | self-cleavage kobs at 640 uM GlcN6P (glucosamine-6-phosphate [4]) [s⁻¹] | self-cleavage kobs at 2500 uM GlcN6P (glucosamine-6-phosphate [5]) [s⁻¹] | self-cleavage kobs at 10000 uM GlcN6P (glucosamine-6-phosphate [6]) [s⁻¹] | KM (glucosamine-6-phosphate [7]) [µM]
19 | G59U C70U | 9.84e-05 ± 6.1e-06 |  |  | 4.56e-05 ± 9.2e-06 | 6.69e-05 ± 8.1e-06 | 9.36e-05 ± 8.8e-06 | 899 ± 210
20 | G60A C61A | < 1e-05 | < 1e-05 | < 1e-05 |  |  |  | 
21 | A53G U57G | 5.45e-05 ± 1.2e-06 |  |  |  | 3.07e-05 ± 1.4e-05 | 4.6e-05 ± 8.2e-06 | 1880 ± 180
22 | C58A C71U | 0.00051 ± 0.0001 |  | 4.42e-05 ± 1.2e-05 | 7.43e-05 ± 7.2e-06 | 0.000183 ± 1.6e-05 | 0.000386 ± 3.2e-05 | 3890 ± 1200
23 | U55G G66U | 0.00299 ± 0.00092 | 4.47e-05 ± 1.7e-05 | 8.99e-05 ± 1.6e-05 | 0.00054 ± 0.0001 | 0.00126 ± 0.00021 | 0.00195 ± 0.00034 | 4240 ± 1800
24 | U55A C70A | 0.00013 ± 1.3e-05 | 2.79e-05 ± 1.1e-05 | 8.57e-05 ± 2e-05 | 0.00011 ± 2.1e-05 | 0.000155 ± 2.2e-05 | 0.000114 ± 1.4e-05 | 116 ± 52
25 | G60U C67A | < 1e-05 | < 1e-05 | < 1e-05 |  | < 1e-05 |  | 
26 | U57C U69G | 2.77e-05 ± 6.2e-06 |  | 3.31e-05 ± 1.4e-05 | 3.38e-05 ± 1.3e-05 |  |  | 
27 | U56G U69G | 4.9e-05 ± 9e-06 |  |  | 8.25e-05 ± 1.5e-05 | 4.98e-05 ± 1.3e-05 | 4.12e-05 ± 7.4e-06 | 
28 | U56G U69A | 0.00018 ± 3.2e-05 | 4.08e-05 ± 1.8e-05 |  | 0.000102 ± 2.7e-05 | 0.000186 ± 3.1e-05 | 0.000176 ± 3.7e-05 | 
29 | G59U C67G | 1.65e-05 ± 6.4e-06 |  |  |  |  |  | 
30 | G59U C67A | 1.11e-05 ± 3.2e-06 | < 1e-05 |  |  |  |  | 
31 | A53U C58U | 6.85e-05 ± 2.7e-06 |  |  |  | 3.23e-05 ± 1.2e-05 | 5.43e-05 ± 6.6e-06 | 2650 ± 390
32 | A53U C58A | 0.000327 ± 1.5e-05 |  |  | 5.94e-05 ± 5.9e-06 | 0.000143 ± 1.3e-05 | 0.000256 ± 2.2e-05 | 3010 ± 250
33 | U55G C67A | 0.000773 ± 0.00021 | 0.000267 ± 4.8e-05 | 0.000394 ± 8.8e-05 | 0.000772 ± 0.00013 |  |  | 
34 | C58A G60C C67G | 1.21e-05 ± 3.8e-06 |  |  |  |  |  | 
35 | G59A U69C | 5.07e-05 ± 2.8e-06 |  |  |  |  | 4.7e-05 ± 1e-05 | 943 ± 240
36 | A53U U57G | 0.000158 ± 2.7e-05 |  |  | 3.61e-05 ± 1.4e-05 | 5.56e-05 ± 1e-05 | 0.000115 ± 1.4e-05 | 4010 ± 1600
